These results are taken from PMC3231483.

In data set [1] the target is T1, thrombin (human, UniProt P00734;P00734 328-363;364-622). Kind of data set: guided mode resonance sensor (kinetic, Langmuir 1:1); 0.75 uM thrombin; ka 1.83e5 M-1s-1, kd 0.30e-1 s-1; Aptamer immobilized from 1 uM in PBS; assay buffer, salt and temperature not given in the material (Tris-HCl pH 7.4 and sodium phosphate listed as reagents); re.
The target in data set [2] is T1, thrombin. Kind of data set: guided mode resonance sensor (kinetic, Langmuir 1:1); 0.25 uM thrombin; ka 2.06e5 M-1s-1, kd 1.05e-1 s-1; Aptamer immobilized from 1 uM in PBS; assay buffer, salt and temperature not given in the material (Tris-HCl pH 7.4 and sodium phosphate listed as reagents); re.
In data set [3] the target is T1, thrombin. Kind of data set: guided mode resonance sensor (kinetic, Langmuir 1:1); 0.50 uM thrombin; ka 1.52e5 M-1s-1, kd 0.61e-1 s-1; Aptamer immobilized from 1 uM in PBS; assay buffer, salt and temperature not given in the material (Tris-HCl pH 7.4 and sodium phosphate listed as reagents); re.
Data set [4] addresses T1, thrombin. Kind of data set: guided mode resonance sensor (kinetic, Langmuir 1:1); 1.00 uM thrombin; ka 0.18e5 M-1s-1, kd 1.54e-1 s-1; Aptamer immobilized from 1 uM in PBS; assay buffer, salt and temperature not given in the material (Tris-HCl pH 7.4 and sodium phosphate listed as reagents); re.
The target of data set [5] is T1, thrombin. Kind of data set: guided mode resonance sensor (kinetic, Langmuir 1:1); 1.50 uM thrombin; ka 0.20e5 M-1s-1, kd 1.33e-1 s-1; Aptamer immobilized from 1 uM in PBS; assay buffer, salt and temperature not given in the material (Tris-HCl pH 7.4 and sodium phosphate listed as reagents); re.
For data set [6], the target named is T1, thrombin. Kind of data set: guided mode resonance sensor (Langmuir linear regression); 0.25-1 uM thrombin; order of magnitude only; Aptamer immobilized from 1 uM in PBS; assay buffer, salt and temperature not given in the material (Tris-HCl pH 7.4 and sodium phosphate listed as reagents); re.

Regarding AGTCCGTGGTAGGGCAGGTTGGGGTGACT (structured_DNA, 5' NH2) [29-mer thrombin aptamer (TBA)], the Ka was 6.18 10^6 M^-1 with thrombin [1]; 1.95 10^6 M^-1 in the data set with thrombin [2]; 2.5 10^6 M^-1 with thrombin [3]; 0.12 10^6 M^-1 in the data set with thrombin [4]; 0.15 10^6 M^-1 in the data set with thrombin [5]; ~1 10^6 M^-1 in the data set with thrombin [6].
